Experimental data published in patent US11213590B2, “SSTR-targeted conjugates and particles and formulations thereof” (priority 2016, dated 2022).
Marks after values point to notes of the source that are not given here.

Columns and labels:
[1] = Drug substance stability study; assay type: physicochemical
Protocol: Stability studies were carried out for Conjugate 57. The tests included in the stability protocols ensure that changes relating to appearance, strength, purity, and moisture of the drug substance are monitored through-out the shelf life of the drug substance. Endotoxins are also monitored by annual inclusion of tests for these attributes in the stability program.
In another stability study, the following conditions were tested: 5° C.±3° C. under nitrogen and −20° C.±5° C. under nitrogen. Nitrogen was selected to prevent oxidation and assure control atmosphere during storage.

[2] = Excipient solubility and compatibility testing; assay type: physicochemical
Protocol: Conjugate 57 is an amphiphilic molecule and therefore tends to self-assemble into large structures. […] Commonly used parenteral surfactant excipients such as Polysorbate 80 (Tween 80) and Polyoxyl 15 Hydroxystearate (solutol, Kolliphor HS 15) were evaluated to re-assemble and stabilize Conjugate 57 into organized micelles. Conjugate 57 is compatible with non-ionic surfactants such as Tween 80 and solutol.

SSTR1 = SSTR1 (Homo sapiens, UniProt P30872); assay: Affinity profile (half-maximal inhibitory concentration), SSTR1; assay type: binding
Text: (§1) DOTATE, also known as DOTA-TATE or DOTA-octreotate, comprises an amide of the acid DOTA, which connects a radionuclide and (Tyr3)-octreotate, a derivative of octreotide. DOTATOC, also known as edotreotide, SMT487, or (DOTA^0-Phe^1-Tyr^3)octreotide, is also an octreotide derivative which can be bound to radionuclides for diagnosis and treatment.

SSTR2 [3] = target: T1, SSTR2 (Homo sapiens, UniProt P30874); assay: Affinity profile (half-maximal inhibitory concentration), SSTR2; assay type: binding
Text: as §1

SSTR3 = SSTR3 (Homo sapiens, UniProt P32745); assay: Affinity profile (half-maximal inhibitory concentration), SSTR3; assay type: binding
Text: as §1

[4] = Pharmacokinetics in patients; assay type: in vivo; settings: human, venous blood, intravenous; in a patient
Protocol: For C1D1 and C3D1, venous blood samples (4-6 ml) for determination of Conjugate 57, the somatostatin analog peptide component of Conjugate 57 (BT-979), and DM1 (total, unconjugated, and free sulfhydryl) are taken before the start of the infusion, at 0.5 hours (±1 minute) after the start of study drug infusion; precisely at the end of infusion; and 1.5 hours (±5 minutes), 2 hours (±5 minutes), 4 hours (±5 minutes), 6 hours (±5 minutes), 8 hours (±5 minutes), and 10 hours (±5 minutes) after the start of study drug infusion. If the 10 hour time point requires an inpatient admission at the center, the 10 hour time point is not collected. The date and time of collection of each sample are recorded.

[5] = Buffer screening for solution stability; assay type: physicochemical; settings: acetate buffer versus citrate and phosphate buffers; pH range of 4.0 to 4.8
Text: Conjugate 57 is a free flowing powder. The formulation development of Conjugate 57 was accomplished by screening conditions that would provide stability and tonicity to the drug product solution. […] The buffer is formed by a combination of sodium acetate and acetic acid. In summary, acetate buffer, a commonly used parenteral buffer, is used to dissolve Conjugate 57 and ensure stability at a pH range of 4.0 to 4.8.

SSTR2 [6] = target: T1, SSTR2; assay: SSTR2 receptor internalization in H524-MD tumor xenograft (IHC staining); assay type: in vivo; parameters: highly expressing SSTR2 positive (SSTR2+) tumor xenograft; endogenous in cells
Protocol: SSTR2 receptor internalization was studied using Conjugate 57 in a highly expressing SSTR2 positive (SSTR2+) tumor xenograft: H524_MD tumor xenograft. Vehicle (0.1% Solutol/5% Mannitol), Conjugate 57 at 2 mg/kg, scrambled control (BT-984) at 2 mg/kg, and Octreotide at 1.4 mg/kg (ligand alone) were given to SSTR2+ H524-MD tumor xenografts (n=3/group). Timepoints—0 hr (Vehicle), 15 mins, 1 hr, 4 hr, 24 hr and 72 hrs. SSTR2 scoring was done by immunohistochemistry (IHC) staining.

[7] = Lot 1, 5° C. ± 3° C. study, Initial
[8] = Lot 1, −20° C. ± 5° C. study, Initial
[9] = Lot 1 stored at 5° C. ± 3° C., 3 Month
[10] = Lot 1 stored at −20° C. ± 5° C., 3 Month
[11] = Lot 2, 5° C. ± 3° C./Ambient RH under nitrogen, Initial
[12] = Lot 2, 25° C. ± 2° C., 60% RH ± 5% RH study, Initial
[13] = Lot 2 stored at 5° C. ± 3° C./Ambient RH under nitrogen, 1 Month
[14] = Lot 2 stored at 5° C. ± 3° C./Ambient RH under nitrogen, 1 Month, preliminary identification
[15] = Lot 2 stored at 25° C. ± 2° C., 60% RH ± 5% RH, 3 Month

T1 sequence (P30874 whole entry): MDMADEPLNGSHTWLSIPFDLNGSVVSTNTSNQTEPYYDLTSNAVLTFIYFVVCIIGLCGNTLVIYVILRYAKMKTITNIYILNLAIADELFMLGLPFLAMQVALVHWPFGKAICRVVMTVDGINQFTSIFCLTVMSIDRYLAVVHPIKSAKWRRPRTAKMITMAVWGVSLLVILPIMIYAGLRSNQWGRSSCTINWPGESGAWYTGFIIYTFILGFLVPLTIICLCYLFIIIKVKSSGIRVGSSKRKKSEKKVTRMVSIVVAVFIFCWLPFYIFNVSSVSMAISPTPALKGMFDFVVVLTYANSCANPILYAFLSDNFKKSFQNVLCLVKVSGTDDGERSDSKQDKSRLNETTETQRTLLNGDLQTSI
Chain of SSTR3 (P32745 whole entry): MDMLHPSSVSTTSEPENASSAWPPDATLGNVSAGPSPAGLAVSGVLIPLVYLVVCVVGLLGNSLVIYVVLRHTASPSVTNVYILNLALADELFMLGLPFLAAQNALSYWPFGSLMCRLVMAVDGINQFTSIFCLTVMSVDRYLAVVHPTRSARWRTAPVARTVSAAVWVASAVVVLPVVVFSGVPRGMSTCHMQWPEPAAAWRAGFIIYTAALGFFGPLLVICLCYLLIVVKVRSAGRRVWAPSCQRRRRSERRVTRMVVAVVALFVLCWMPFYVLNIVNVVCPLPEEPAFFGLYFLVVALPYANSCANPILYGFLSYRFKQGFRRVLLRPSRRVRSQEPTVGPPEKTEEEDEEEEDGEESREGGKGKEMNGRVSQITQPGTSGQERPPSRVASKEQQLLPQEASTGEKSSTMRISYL
Chain of SSTR1 (P30872 whole entry): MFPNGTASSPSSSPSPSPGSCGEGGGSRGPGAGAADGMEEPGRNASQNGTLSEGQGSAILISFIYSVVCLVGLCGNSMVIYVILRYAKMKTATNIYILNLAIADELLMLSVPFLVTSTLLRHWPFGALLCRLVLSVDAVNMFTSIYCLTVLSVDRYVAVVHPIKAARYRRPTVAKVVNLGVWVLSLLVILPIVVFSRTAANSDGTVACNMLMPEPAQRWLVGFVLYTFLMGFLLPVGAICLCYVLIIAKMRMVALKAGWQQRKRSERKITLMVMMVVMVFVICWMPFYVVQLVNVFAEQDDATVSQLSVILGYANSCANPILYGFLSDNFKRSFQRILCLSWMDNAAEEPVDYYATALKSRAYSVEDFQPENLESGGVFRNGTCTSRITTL

COc1cc2cc(c1Cl)N(C)C(=O)C[C@H](OC(=O)[C@H](C)N(C)C(=O)CCSSC[C@H](NC(=O)[C@@H]1CSSC[C@H](NC(=O)[C@H](N)Cc3ccccc3)C(=O)N[C@@H](Cc3ccc(O)cc3)C(=O)N[C@H](Cc3c[nH]c4ccccc34)C(=O)N[C@@H](CCCCN)C(=O)N[C@@H]([C@@H](C)O)C(=O)N1)C(N)=O)[C@]1(C)O[C@H]1[C@H](C)[C@@H]1C[C@@](O)(NC(=O)O1)[C@H](OC)/C=C/C=C(\C)C2 [Conjugate 57]
degradation on storage ([1]; 5° C.±3° and 25° C./60% Relative Humidity (RH), 3 months): Significant degradation
Appearance [1, 7]: White powder
Assay [1, 7]: 88.2%
Moisture Content by KF [1, 7]: 4.3%
Purity (RP-HPLC) [1, 7]: 98.0%
Total Impurities [1, 7]: 1.9%
Appearance [1, 8]: White powder
Assay [1, 8]: 88.2%
Moisture Content by KF [1, 8]: 4.3%
Purity (RP-HPLC) [1, 8]: 98.0%
Total Impurities [1, 8]: 1.9%
Appearance [1, 9]: White powder
Assay [1, 9]: 88.2%
Purity (RP-HPLC) [1, 9]: 97.4%
Total Impurities [1, 9]: 2.5%
Appearance [1, 10]: White powder
Assay [1, 10]: 90.9%
Purity (RP-HPLC) [1, 10]: 98.0%
Total Impurities [1, 10]: 1.9%
Appearance [1, 11]: White powder
Assay [1, 11]: 97.0%
Moisture Content by KF [1, 11]: 2.1%
Purity (RP-HPLC) [1, 11]: 98.0%
Total Impurities [1, 11]: 2.0%
Starting Materials: BT-976 content ([1]; Lot 2, 5° C. ± 3° C./Ambient RH under nitrogen, Initial, preliminary identification by marker retention time): 0.05%^a
Appearance [1, 12]: White powder
Assay [1, 12]: 88.2%
Moisture Content by KF [1, 12]: 4.3%
Purity (RP-HPLC) [1, 12]: 98.0%
Total Impurities [1, 12]: 1.9%
Appearance [1, 13]: White powder
Assay [1, 13]: 94.6%
Moisture Content by KF [1, 13]: 1.9%
Purity (RP-HPLC) [1, 13]: 96.6%
Total Impurities [1, 13]: 3.4%
Starting Materials: BT-976 content [1, 14]: 0.05% a
Starting Materials: DM1 content [1, 14]: 0.09% a
Appearance [1, 15]: White powder
Assay [1, 15]: 78.7%
Purity (RP-HPLC) [1, 15]: 90.8%
Total Impurities [1, 15]: 9.2%
change in purity on storage ([1]; after 3 months at −20° C.±5° C.): No significant change in purity
time stable ([1]; at −20° C.): at least 3 months
solubility ([2]; in saline): < 1000 µg/mL
excipient compatibility ([2]; non-ionic surfactants such as Tween 80 and solutol): compatible
excipient compatibility ([2]; tocophersolan (TPGS), super refined PEG 300, PEG 400, ethanol, dextrose, or Pluronics F68): not compatible
IC50 (SSTR1): 380 nM
IC50 (SSTR2 [3]): 0.042 nM
IC50 (SSTR3): 58 nM
half-life [4]: ~1.8 h
solution stability by buffer [5]: most stability
SSTR2 receptor internalization/distribution in vivo (SSTR2 [6]; 2 mg/kg, H524-MD tumor xenograft): significant receptor internalization/distribution
SSTR2 receptor internalization, intensity of staining analysis (SSTR2 [6]; 2 mg/kg, versus BT-984 and naïve at 1 hr, 4 hr and 72 hours): significantly different results
SSTR2 internalization, distribution of staining analysis (SSTR2 [6]; 2 mg/kg, versus BT-984 and naïve at 4 hr, 24 hr and 72 hours): significantly different results
SSTR2 internalization compared with octreotide alone (SSTR2 [6]; Conjugate 57 2 mg/kg, octreotide 1.4 mg/kg): more SSTR2 internalization than octreotide alone
